T1: Trs85-TAP (from yeast) (budding yeast, UniProt P46944 1-698)
T1 sequence: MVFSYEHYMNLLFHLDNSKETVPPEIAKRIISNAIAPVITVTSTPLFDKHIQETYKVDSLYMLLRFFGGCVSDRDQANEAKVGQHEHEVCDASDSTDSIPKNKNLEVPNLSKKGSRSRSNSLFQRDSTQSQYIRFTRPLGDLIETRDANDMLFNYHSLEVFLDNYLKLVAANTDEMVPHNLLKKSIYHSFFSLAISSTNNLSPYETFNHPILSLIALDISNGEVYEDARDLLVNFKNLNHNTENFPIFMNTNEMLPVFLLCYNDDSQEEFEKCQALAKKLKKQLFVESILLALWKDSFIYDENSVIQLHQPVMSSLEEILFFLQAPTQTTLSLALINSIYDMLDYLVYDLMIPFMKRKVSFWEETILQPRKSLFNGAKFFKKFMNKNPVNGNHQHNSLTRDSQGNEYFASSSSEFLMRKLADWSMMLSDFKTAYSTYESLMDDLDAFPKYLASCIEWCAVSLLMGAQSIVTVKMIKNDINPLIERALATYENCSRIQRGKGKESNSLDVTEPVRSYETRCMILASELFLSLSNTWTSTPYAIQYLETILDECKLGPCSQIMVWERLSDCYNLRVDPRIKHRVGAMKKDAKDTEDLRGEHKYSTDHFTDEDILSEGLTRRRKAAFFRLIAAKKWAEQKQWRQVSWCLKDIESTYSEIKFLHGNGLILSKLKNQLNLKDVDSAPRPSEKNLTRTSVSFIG

T2: Trs120-TAP (budding yeast, UniProt Q04183 1-1289)
T2 sequence: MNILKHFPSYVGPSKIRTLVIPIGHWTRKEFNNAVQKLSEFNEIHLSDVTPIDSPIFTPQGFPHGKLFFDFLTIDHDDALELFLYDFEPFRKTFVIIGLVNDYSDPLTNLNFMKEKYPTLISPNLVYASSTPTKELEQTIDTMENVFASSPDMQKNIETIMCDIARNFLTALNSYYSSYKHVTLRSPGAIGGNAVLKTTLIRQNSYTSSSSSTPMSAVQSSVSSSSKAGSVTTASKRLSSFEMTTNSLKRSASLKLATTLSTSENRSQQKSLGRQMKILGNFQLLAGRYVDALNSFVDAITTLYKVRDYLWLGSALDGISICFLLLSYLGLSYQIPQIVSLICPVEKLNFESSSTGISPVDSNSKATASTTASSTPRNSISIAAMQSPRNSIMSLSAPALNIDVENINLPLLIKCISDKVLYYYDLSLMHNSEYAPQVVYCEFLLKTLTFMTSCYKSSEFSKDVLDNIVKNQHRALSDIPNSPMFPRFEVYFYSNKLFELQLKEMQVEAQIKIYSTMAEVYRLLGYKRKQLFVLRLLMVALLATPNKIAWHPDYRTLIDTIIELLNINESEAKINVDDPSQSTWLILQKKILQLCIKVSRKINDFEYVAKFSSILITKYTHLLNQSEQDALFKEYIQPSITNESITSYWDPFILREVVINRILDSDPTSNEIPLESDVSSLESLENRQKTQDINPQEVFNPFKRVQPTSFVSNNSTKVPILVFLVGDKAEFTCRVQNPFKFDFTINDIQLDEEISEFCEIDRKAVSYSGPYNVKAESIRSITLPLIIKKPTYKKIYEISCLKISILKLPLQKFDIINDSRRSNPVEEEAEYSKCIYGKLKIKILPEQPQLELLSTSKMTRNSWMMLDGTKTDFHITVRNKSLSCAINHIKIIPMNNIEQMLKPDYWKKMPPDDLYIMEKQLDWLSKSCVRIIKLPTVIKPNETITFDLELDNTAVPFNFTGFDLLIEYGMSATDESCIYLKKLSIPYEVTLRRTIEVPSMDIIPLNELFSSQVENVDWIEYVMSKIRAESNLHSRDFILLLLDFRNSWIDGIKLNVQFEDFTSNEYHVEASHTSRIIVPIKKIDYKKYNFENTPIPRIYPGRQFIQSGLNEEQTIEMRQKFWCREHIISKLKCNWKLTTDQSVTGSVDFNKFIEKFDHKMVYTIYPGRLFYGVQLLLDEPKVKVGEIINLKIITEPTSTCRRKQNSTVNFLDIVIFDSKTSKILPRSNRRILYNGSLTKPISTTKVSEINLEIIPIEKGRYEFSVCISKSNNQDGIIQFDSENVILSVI

T3: Gdi1 (UniProt P39958 1-451)
T3 sequence: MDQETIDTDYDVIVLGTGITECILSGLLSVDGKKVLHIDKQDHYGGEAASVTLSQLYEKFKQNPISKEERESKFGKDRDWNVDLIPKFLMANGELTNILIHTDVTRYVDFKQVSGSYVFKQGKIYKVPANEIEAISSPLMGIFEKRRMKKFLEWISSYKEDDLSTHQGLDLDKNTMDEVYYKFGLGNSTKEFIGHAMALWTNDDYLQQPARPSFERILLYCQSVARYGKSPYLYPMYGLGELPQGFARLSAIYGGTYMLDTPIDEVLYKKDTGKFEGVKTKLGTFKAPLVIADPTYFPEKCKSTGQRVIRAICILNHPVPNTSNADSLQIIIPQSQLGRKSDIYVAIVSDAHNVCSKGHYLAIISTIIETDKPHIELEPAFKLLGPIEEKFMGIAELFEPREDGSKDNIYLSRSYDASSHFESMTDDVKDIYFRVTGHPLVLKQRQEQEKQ


How the values were obtained:
[1] = target: T1, Trs85-TAP (from yeast); assay: tandem affinity purification
[2] = target: T2, Trs120-TAP; assay: tandem affinity purification
[3] = target: T3, Gdi1; assay: SEC

Row | Binder | stoichiometry N [1] | stoichiometry N [2] | binding result [3]
1 | Bet3 (endogenous, yeast) (natural protein) MVSTTQSRSLKAMGEEIWKNKTEKINTELFTLTYGSIVAQLCQDYERDFNKVNDHLYSMGYNIGCRLIEDFLARTALPRCENLVKTSEVLSKCAFKIFLNITPNITNWSHNKDTFSLILDENPLADFVELPMDAMKSLWYSNILCGVLKGSLEMVQLDCDVWFVSDILRGDSQTEIKVKLNRILKDEIPIGED | 2 | 2 | –
2 | prenylated Ypt1 (natural protein, prenylated with geranylgeranyl pyrophosphate in vitro; loaded with mantGDP) not shown | – | – | binds

From PMC5748984 (The Journal of Cell Biology, 2018)
